Measurements as given in patent publication US20220332804A1 (CSL INNOVATION, published 2022).

Tests used:
Assay in all cases: SPR; KD relative to WT C2;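 note: biacore SPR at 37 °C, anti-C2 mAbs captured on an anti-human IgG chip, alanine or serine C2 surface mutants tested, KD from 1:1 fit compared with wild-type C2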
human C2 S473A = molecular target: T1, human C2 S473A (human, UniProt P06681 21-752)
T1 sequence: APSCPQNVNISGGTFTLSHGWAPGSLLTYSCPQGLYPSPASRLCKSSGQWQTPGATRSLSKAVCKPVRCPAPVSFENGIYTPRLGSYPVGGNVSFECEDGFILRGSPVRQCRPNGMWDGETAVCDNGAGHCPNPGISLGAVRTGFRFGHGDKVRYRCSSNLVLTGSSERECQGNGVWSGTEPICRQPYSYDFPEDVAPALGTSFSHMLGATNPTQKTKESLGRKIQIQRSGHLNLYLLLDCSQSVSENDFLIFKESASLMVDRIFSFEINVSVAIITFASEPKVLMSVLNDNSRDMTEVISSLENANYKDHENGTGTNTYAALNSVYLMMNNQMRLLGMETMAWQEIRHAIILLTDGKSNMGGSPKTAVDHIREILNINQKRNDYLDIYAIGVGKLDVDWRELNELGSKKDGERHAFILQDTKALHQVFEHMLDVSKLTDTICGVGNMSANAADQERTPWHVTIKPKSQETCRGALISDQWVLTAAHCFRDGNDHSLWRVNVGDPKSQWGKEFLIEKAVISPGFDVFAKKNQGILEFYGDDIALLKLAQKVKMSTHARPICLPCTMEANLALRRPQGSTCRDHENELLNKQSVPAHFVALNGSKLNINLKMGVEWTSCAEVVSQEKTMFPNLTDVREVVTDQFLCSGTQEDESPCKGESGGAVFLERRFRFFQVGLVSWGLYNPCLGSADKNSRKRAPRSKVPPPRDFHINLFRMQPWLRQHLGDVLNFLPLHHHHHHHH
Method: (§1) Surface plasmon resonance (SPR, Biacore) was used for all binding affinity analyses. In brief, goat anti-human IgG was directly immobilised onto the carboxymethyl dextran surface of CM5 sensorchips to approximately 12,000 RU using standard NHS/EDC chemistry at pH 5. The immobilised antibody surface was pre-conditioned with ten injections of polyclonal human IgG (Privigen 60 s) prepared at 1 μg/mL. Ligands (anti-C2 mAbs) were captured at the beginning of each cycle as described below. An adjacent spot or flow cell in which only Polyclonal IgG was capture was used as a reference surface. The goat anti-human IgG Fc antibody surface was regenerate in 100 mM H3PO4, injected for 45 seconds at the end of each cycle. Experiments were performed at 37° C. and the flow rate of each experiment was kept constant at 30 μL/min.
(§2) Sensogram data was double-referenced against a reference anti-IgG surface (i.e. minus anti-C2 mAb) and blank buffer injections obtained within each experiment. The binding data was fit to 1:1 (kinetic or steady-state) model using local Rmax and null refraction index (RI=0) when appropriate. Buffers and solutions were filtered (0.22 μm) prior to use.
(§3) The C2 mutants were designed to test the importance of surface exposed residues for antibody binding. Residues located at either the N-terminal VWA domain or C-terminal protease domain of C were replaced by either alanine or serine and tested for binding against anti-C2 antibodies.

human C2 N380A = molecular target: T2, human C2 N380A (human, UniProt P06681 21-752)
T2 sequence: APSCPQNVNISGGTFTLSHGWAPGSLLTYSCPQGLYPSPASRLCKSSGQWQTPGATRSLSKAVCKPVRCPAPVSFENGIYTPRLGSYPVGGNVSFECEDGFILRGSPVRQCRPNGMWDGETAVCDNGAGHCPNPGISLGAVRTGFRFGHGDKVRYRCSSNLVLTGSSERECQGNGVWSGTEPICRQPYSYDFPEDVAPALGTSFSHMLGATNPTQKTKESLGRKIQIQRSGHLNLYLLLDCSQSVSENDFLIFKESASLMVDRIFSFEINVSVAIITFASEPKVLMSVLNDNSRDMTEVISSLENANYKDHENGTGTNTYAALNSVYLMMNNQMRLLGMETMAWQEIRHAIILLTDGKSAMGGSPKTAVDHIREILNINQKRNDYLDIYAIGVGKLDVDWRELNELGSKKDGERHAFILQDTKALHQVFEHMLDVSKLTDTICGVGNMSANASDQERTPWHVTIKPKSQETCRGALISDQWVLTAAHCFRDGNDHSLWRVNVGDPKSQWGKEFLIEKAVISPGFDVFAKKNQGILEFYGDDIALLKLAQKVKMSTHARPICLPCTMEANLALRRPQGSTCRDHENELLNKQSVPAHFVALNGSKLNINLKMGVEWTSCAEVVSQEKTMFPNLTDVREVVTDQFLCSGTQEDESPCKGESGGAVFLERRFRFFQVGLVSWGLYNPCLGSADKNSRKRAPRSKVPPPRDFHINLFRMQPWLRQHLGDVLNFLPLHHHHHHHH
Method: as §1, §2, §3

human C2 F437A = molecular target: T3, human C2 F437A (human, UniProt P06681 21-752)
T3 sequence: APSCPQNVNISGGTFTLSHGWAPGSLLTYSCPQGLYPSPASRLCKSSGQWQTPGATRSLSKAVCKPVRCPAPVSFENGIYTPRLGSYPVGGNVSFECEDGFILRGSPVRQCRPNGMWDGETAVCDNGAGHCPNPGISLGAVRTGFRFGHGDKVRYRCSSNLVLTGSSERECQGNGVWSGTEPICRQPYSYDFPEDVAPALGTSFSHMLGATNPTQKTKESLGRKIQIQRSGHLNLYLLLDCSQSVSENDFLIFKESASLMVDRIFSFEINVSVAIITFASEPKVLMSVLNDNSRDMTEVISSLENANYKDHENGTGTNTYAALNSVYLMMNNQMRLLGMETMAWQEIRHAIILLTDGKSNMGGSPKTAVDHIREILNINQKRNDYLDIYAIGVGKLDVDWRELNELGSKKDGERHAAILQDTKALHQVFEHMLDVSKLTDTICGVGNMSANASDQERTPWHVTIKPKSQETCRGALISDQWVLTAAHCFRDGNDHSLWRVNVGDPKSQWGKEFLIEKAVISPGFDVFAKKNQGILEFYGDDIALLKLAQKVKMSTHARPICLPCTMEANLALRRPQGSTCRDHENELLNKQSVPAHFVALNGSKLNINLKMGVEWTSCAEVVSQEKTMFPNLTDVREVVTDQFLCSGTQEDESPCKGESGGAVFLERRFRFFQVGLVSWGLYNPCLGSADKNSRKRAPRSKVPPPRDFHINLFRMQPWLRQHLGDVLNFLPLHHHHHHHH
Method: as §1, §2, §3

human C2 N325A = molecular target: T4, human C2 N325A (human, UniProt P06681 21-752)
T4 sequence: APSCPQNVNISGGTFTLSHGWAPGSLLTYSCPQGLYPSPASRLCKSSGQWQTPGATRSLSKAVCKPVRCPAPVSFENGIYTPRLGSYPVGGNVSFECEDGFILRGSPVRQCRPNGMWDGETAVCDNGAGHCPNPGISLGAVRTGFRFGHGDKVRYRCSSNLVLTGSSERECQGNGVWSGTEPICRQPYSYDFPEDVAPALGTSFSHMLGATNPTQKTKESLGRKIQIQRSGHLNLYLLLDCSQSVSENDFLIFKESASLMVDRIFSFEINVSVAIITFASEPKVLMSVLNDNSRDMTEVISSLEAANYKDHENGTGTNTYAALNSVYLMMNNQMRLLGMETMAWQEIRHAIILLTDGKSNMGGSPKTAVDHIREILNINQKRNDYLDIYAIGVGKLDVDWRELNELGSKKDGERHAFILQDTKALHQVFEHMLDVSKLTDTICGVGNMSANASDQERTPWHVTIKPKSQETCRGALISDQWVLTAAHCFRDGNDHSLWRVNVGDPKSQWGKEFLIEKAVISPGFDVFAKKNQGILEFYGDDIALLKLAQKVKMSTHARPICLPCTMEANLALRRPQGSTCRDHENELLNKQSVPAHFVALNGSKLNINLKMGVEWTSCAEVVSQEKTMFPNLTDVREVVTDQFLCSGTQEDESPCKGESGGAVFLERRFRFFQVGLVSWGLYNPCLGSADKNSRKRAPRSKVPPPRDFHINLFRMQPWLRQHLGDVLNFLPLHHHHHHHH
Method: as §1, §2, §3

B1: RF16-214 (antibody, V domains shown)
VH: EVQLLESGGGLVQPGGSLRLSCAASGFTFSWYQMMWVRQAPGKGLEWVSRIYPSGGGTAYADSVKGRFTISRDNSKNTLYLQMNSLRAEDTAVYYCARDAGYGDNWGQGTLVTVSS
VL: QSALTQPPSVSVSPGQTASITCSGDKLGEKYASWYQQKAGQSPVMVIYQDRKRPSGIPERFSGSNSGNTATLTISGTQAMDEADYYCQAWDTRAVVFGGGTKLTVLG
Question: For B1, which Fold diff (human C2 S473A) is on record?
Answer: The Fold diff was 2 fold.

Question: What about the Fold diff (human C2 N380A) of the same binder?
Answer: The Fold diff was 2 fold.

Question: And the Fold diff (human C2 F437A)?
Answer: The Fold diff was 12 fold.

Question: What about the Fold diff (human C2 N325A) of the same binder?
Answer: The Fold diff was 11 fold.
